Experiment: yeast display, Sf9 membrane polyspecificity reagent, FACS + sequencing; frameworks hold sequencing errors
In short: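 A synthetic nanobody library was expressed on Saccharomyces cerevisiae BJ5465 by galactose induction for 36–48 hours. The library was stained for 1 hour at 4 °C with 10% biotinylated, detergent-solubilized Sf9 membrane reagent and enriched with streptavidin microbeads before FACS. Low and high (top ~1%) gates were set on anti-HA fluorescence for expression and streptavidin fluorescence for reagent binding, and each polyreactivity label reflects the gate of origin.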

QVQLVESGGGLVQAGGSLRLSCAASGSTIGPYAMGWSRQAPGKERELVAAITISGDSTNYADSVKGRFTISRDNAKNTVYLQMLSLKPEDTAVYYCAAAYYWLQSWYDYWGQGTLVTVSS
polyreactivity (PSR sort gate): low polyreactivity

QVQLVESGGGLVQAGGSLRLSCAASGSTIGRNAMGWDRQAPGNERELVASITDSSGSPNYADSVKGRFTISRDNAKNSVYLQMHSLKPEDTAVYYCATGYYYYTRYRYHTKYYSWGQGTQVTVSS
polyreactivity (PSR sort gate): high polyreactivity

QVQLVESGGGLVQAGGSLRLSCAASGSTIGSYAMGWYRQAPGKERELVAAITWNGGGTYYADSVKGRFTISRDNAKNTVYLQMNSLKPEDTAVYYCAADGWFGRVAPGSDYWGQGTQVTVSS
polyreactivity (PSR sort gate): low polyreactivity

QVQLVESGGGLVQAGGSLRLSCAASGSTIHDYAMGWYRQAPGKEREFVAAISNSGGSTYYADSLKGRFTISRDNAKNTVYLQMNSLKPEDTAVYYCAADGRWYWDYEYWGQGTQVTVSS
polyreactivity (PSR sort gate): low polyreactivity

QVQLVESGGGLVQAGGSLRLSCAASGSTIHINAMGWYRQAPGKERELVADINWSGGSTYYADSVKGRFTISRDNAKNTVYLQMNSLKPADSAVYYCAADVGVFTYSPYDAGEHDYWGQGSQVTVSS
polyreactivity (PSR sort gate): low polyreactivity

QVQLVESGGGLVQAGGSLRLSCAASGSTIIRNAMGWYRQAPGKERELVAAISTSAGRTHYADSVKGRFTISRDHAKNTVYLNMNSLKPEDTAVSYCATRGKGHYYYWGQGTKVTVSS
polyreactivity (PSR sort gate): high polyreactivity

QVQLVESGGGLVQAGGSLRLSCAASGSTIKTYATMGWYRQAPGKERELVSAITSGSSTNYADSVKGRFTISRDNAKNNVYLQMNSLKPEATAVYYCAADDYYNWYLGEPGDYWGQGTQVTVSS
polyreactivity (PSR sort gate): low polyreactivity

QVQLVESGGGLVQAGGSLRLSCAASGSTILYYGMGWYRQAPGKERELVATITWRGGRTYYADSVKGRFTISRDNAKNTVYLQMNSLKTEDTAVYYCARVRLTTYGYYSWGQGTQVTVSS
polyreactivity (PSR sort gate): high polyreactivity

QVQLVESGGGLVQAGGSLRLSCAASGSTIPYNTMGWYRQAPGKERELVAAISSSCRSTYYADSVKGRFTISRDNAKKTVYLQMNSLKPEDTAVYYCNAQIVASYQARRYYYWGQGTQVTVSS
polyreactivity (PSR sort gate): low polyreactivity

QVQLVESGGGLVQAGGSLRLSCAASGSTIRGYAMGWYRQVTGKEREMGADISWSGTSTKYADSVKGRFTISRDNAKNTVYLQMNSLKPEDTAVYYCAKRYVRFPWRMDYWGQGTQVTVSS
polyreactivity (PSR sort gate): high polyreactivity

QVQLVESGGGLVQAGGSLRLSCAASGSTIRKYAMGWYRQAPGKERELVAAISARGGSTYYADSVKGRFTISRDNAKNTVYLQMNSLNPEDTAVYYCAADGYRPYSTFDYWGQGTQVTVSS
polyreactivity (PSR sort gate): high polyreactivity

QVQLVESGGGLVQAGGSLRLSCAASGSTIRYYAMGWYRQAPGKERELVAAITSSGTSTYYADSVKGRFTISRDNAKNTVDLQMNRLKPEDTAVYYCAARPVYKWVSSRYDYWGQGTQVTVSS
polyreactivity (PSR sort gate): low polyreactivity

QVQLVESGGGLVQAGGSLRLSCAASGSTISPNAMGWYRQAPGKERELVPAITWSGGSNTYADSVKGRFTISRDNAKNTVYLQMNSLKPEDTAVYYCATVGYLYTPVVVTWWDWGDYWGQGTQVTVSS
polyreactivity (PSR sort gate): low polyreactivity

QVQLVESGGGLVQAGGSLRLSCAASGSTITFYTMGWYRQEPGKEREFVADIDDSGGITYYADSVKGRFTISRDNAKNTVYLQMNSLKPEDTAVYSCAAEYWTACYWICVDYWGQGTQVTVSS
polyreactivity (PSR sort gate): high polyreactivity

QVQLVESGGGLVQAGGSLRLSCAASGSTITYYTMGWYRQAPGKERELVAAISGSGGRTYYADSVKGRFTISRDNAKNTVYLQMNSLKPEDTAVYYCAAVYQLSRYDYWGQGTQVTVSS
polyreactivity (PSR sort gate): high polyreactivity

QVQLVESGGGLVQAGGSLRLSCAASGSTIVVYAMGWYRQAPGKARELVAAITTSDDSTYYADSVKGRFTISRDNAKNTVYLQMNSLKPEDTAVYYCAATLRWQDGYSGQGTQVTVSS
polyreactivity (PSR sort gate): low polyreactivity

QVQLVESGGGLVQAGGSLRLSCAASGSTIVYYAMGWYRQAPGKERELVAAINYSSGSTYYADSVKGRFTISRDNSKNTVYLQMNSLKPEDTAVYYCATDLLYYQYYSEYDYWGQGTQVTVSS
polyreactivity (PSR sort gate): high polyreactivity

QVQLVESGGGLVQAGGSLRLSCAASGSTIYFYAMGWYRQAPGKERELVAAITRSGSTYYADSVKGRFTISRDNAKNTVYLQLNSLKPEDTAVYYCNADQYYGCRYVYLRHYNYWGQGTQVTVSS
polyreactivity (PSR sort gate): high polyreactivity

QVQLVESGGGLVQAGGSLRLSCAASGSTIYLYDMGWYRQAPGKERELVATITSGTSTTYADSVKGRFTISRDYAKNTVYLQMNSLKPADTAVYYCNATDVGIITVGYGHGGYYWGQGTQVTVSS
polyreactivity (PSR sort gate): low polyreactivity

QVQLVESGGGLVQAGGSLRLSCAASGSTIYPYAMGWYRQAPGKERELVAAISSGGRTYYADSEKGRFTISRDKAKNTVYLQMNSLKPEDPAVYYCAARVTKKYRRTYDYWGQGTQVTVSS
polyreactivity (PSR sort gate): high polyreactivity

QVQLVESGGGLVQAGGSLRLSCAASGSTIYRNAMVWYRQAPGKERELVAAISKSGGSTYYADTVKGRFTISRDNAKNTVYLQMNSQKPEDTAVYYCNSRYWVTTGGYWGQGTQVTVSS
polyreactivity (PSR sort gate): high polyreactivity

QVQLVESGGGLVQAGGSLRLSCAASGSTIYVYAMGWYRQAPGKERELVAAITDSGGSTYADSVKGRFTISRDNAKNTVYLQMNSLKPEDTAVYADSTYNWYYYYWGQGTQVTVSS
polyreactivity (PSR sort gate): low polyreactivity

QVQLVESGGGLVQAGGSLRLSCAASGSTLAGYAMGWSRQAPGKERELVAAITRRGGRTYYADSVKGRFTISRDNAKNTVYLQMNSLKPEDTAVYYCAAQRSVKVDYWGQGTQVTVSS
polyreactivity (PSR sort gate): high polyreactivity

QVQLVESGGGLVQAGGSLRLSCAASGSTLAIYAMGWYRQAPGKERELVAAISRSGGTTYYADSVKGRFTISRDNAKNTVYLQMNSLKPEDTAVYYCYPYFWYPDGYTYDYWGQGTQVTVSS
polyreactivity (PSR sort gate): high polyreactivity

QVQLVESGGGLVQAGGSLRLSCAASGSTLAPYVKGWYRQAPGKERELVAVISTRTGRTYYADSVKGRFTISRDNAKNTVYLQMNSLKPEDTAVYYCAAPVYPYQVQTYDYWGQGTQVTVSS
polyreactivity (PSR sort gate): high polyreactivity

QVQLVESGGGLVQAGGSLRLSCAASGSTLAVYAMGWYRQAPGKEREFVAAISWSGVSTYYADSVKGRFTISRDNAKNTVYLQMNSLKPEDTAVYYCAAKRVRALYGGSEGGYWGQGTQVTVSS
polyreactivity (PSR sort gate): low polyreactivity

QVQLVESGGGLVQAGGSLRLSCAASGSTLAVYPMGWYRQAPGKERELVAVIDRGGSTYYADSVKGRFTISRDNAKNTVYLQMNSLKPEDTAVFNCNARRVKGYGYWGHGTQVTVSS
polyreactivity (PSR sort gate): high polyreactivity

QVQLVESGGGLVQAGGSLRLSCAASGSTLAYNAMGWYRQAPGKERELVATINFSGGSTYYADSVKGRFTISRDNSKNTVYLQMNSLKPEDTAVYYCNARGYWQYSPTKFDYWGQGTQVTVSS
polyreactivity (PSR sort gate): low polyreactivity

QVQLVESGGGLVQAGGSLRLSCAASGSTLDDYVMGWYRQAPGKERELVAAISSSGSGTYYADSVKGRFTISRDNAKNTVYLQMNSLKPEDTAVYYCAAAYSYSGYGYYTYDYWGQGTQVTVSS
polyreactivity (PSR sort gate): low polyreactivity

QVQLVESGGGLVQAGGSLRLSCAASGSTLDEYAMGWYRQAPGKEREFVAAISWSDGSTYADSVKGRFTISRDNAKNTVYLQMNSLKPEDTAVYYCNAYAYVSLYYSGEYWGQGTQVTVSS
polyreactivity (PSR sort gate): low polyreactivity

QVQLVESGGGLVQAGGSLRLSCAASGSTLDSNAMGWYRQATGKERELVAAIDWSGGSTYYADSVKGRFTISRDHAKNTVYLQMNSLKPEDTAVYYCAADDSSINYGDFDYWGQGTQVTVSS
polyreactivity (PSR sort gate): low polyreactivity

QVQLVESGGGLVQAGGSLRLSCAASGSTLDVYAMGWYRQAPGKERELVAAISWSVGSTYYAYSVKGRFKISRDNAKNTVYLQINRLKPEDTAVYNCAAEQYEYAYDGYDYWGQGTQVTVSS
polyreactivity (PSR sort gate): high polyreactivity

QVQLVESGGGLVQAGGSLRLSCAASGSTLDYNDMGWYRQAPGKEREFVAAIRSNDGSTYYADSVKGRFTISRDNAKKTVYLQMNSLKPEDTAVYYCNKDVWDGYDWPEFDYLGQGTQVTVSS
polyreactivity (PSR sort gate): low polyreactivity

QVQLVESGGGLVQAGGSLRLSCAASGSTLGRNAMGWYRQAPGKERELVAAISSTGGSTSYADSVKGRFTISRDNAKNTVYLQMNSLKPEDTAVYYCAKRFSPRYYYWGQGTQVTVSS
polyreactivity (PSR sort gate): high polyreactivity

QVQLVESGGGLVQAGGSLRLSCAASGSTLGSYAMGWYRQAPGKERELVAAINTSGGNTYYADSVKGRFTISRDNAKNTVYLQMNSLKPEDTAVYYCNARYYGGGATFGYWGQGTQVTVSS
polyreactivity (PSR sort gate): low polyreactivity

QVQLVESGGGLVQAGGSLRLSCAASGSTLGVNAMGWYRQAPGKEREFVSSITGRVGNTYYADSVKGRFTISRDNAKNTVYLQMNSLKPEDTAVYYCAARVKYTRYQSILDYYYWGQGTQVTVSS
polyreactivity (PSR sort gate): high polyreactivity

QVQLVESGGGLVQAGGSLRLSCAASGSTLGYYAKGWYRQAPGKERELVATITRSGGNTYYADSVKGRFTISRDNAKNTVYLQMNSLKPEDTAVYYCAARRLYGSQRGYWGQGTQLTVSS
polyreactivity (PSR sort gate): high polyreactivity

QVQLVESGGGLVQAGGSLRLSCAASGSTLHSYAMGWYRQAPGKERELVAALSFRGGSTYADSVKGRFTISRDNAKNTVYLQMNSLKPEDTAVYYCATRSTRADWYIVGYDYWGQGTQVTVSS
polyreactivity (PSR sort gate): low polyreactivity

QVQLVESGGGLVQAGGSLRLSCAASGSTLIANAMGWYRQAPGKERELVAGITYRGGDITTYADSVKGRFTISRDTAKNTVYLQMNSLKPEDTAVYYCAARVVWPTWARGGYWGQGTQVTVSS
polyreactivity (PSR sort gate): low polyreactivity

QVQLVESGGGLVQAGGSLRLSCAASGSTLIDYTMGWYRQAPGKERELVAAISSGGSTNYADSVKGRFTISRDNAKNTVYLQMNSLKPEDTAVYYCAKDHQRYFYGFWEHPRYDYWGQGTQVTVSS
polyreactivity (PSR sort gate): high polyreactivity

QVQLVESGGGLVQAGGSLRLSCAASGSTLIEYAKGWYRQAPGKERELVARISKSGDSTYYADSVKGRFTISRDNAKNTVYLQMNSLKPEDTAVYYCAKYHRDGFYRSYWFRYDYWGQGTQVTVSS
polyreactivity (PSR sort gate): low polyreactivity

QVQLVESGGGLVQAGGSLRLSCAASGSTLIWNVMGWYRQAPGKERELVATISSGGRTYYADSVKGRFTISRDNAKNTVYLQMNSLKPEDTAVYYCAARSRRGVSYRSYRSFDYWGQGTQVTVSS
polyreactivity (PSR sort gate): high polyreactivity

QVQLVESGGGLVQAGGSLRLSCAASGSTLKYNAMGWYRQATGKERELVAAISTSGGNTYYADSVKGRFTISRDNAKNTVYLQMNSLKPEDPAVYYFAKVLGYYYYDYDSWGQGTQVTLSS
polyreactivity (PSR sort gate): low polyreactivity
